Results: patent US20100227805A1 (RAPPAPORT FAMILY INSTITUTE FOR RESEARCH IN THE MEDICAL …, published 2010)

Experiments:
murine MIP-1β (CCL4) = biological target: T1, murine MIP-1β (CCL4) (murine, UniProt P14097 24-92); experiment: direct ELISA, chemokine coated at 10 ng/well, fusion at 10-1000 ng/ml
T1 construct: Bought recombinant chemokine; also called mCCL4; murine CCL4
T1 sequence (looked up): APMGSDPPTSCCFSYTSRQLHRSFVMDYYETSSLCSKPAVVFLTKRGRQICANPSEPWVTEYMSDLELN
Procedure: (§1) The binding specificity of the different extracellular domains (EC1, EC2, EC3 and N) of the murine CCR5-IgG fusion proteins to various commercially available murine recombinant […] chemokines (R&D Systems, Minneapolis, N. Mex. including MIP-1α (CCL3), (CCL4) and RANTES (CCL5) was determined by direct ELISA as follows: 96-well ELISA plates (Nunc, Roskilde, Denmark) were coated with 10 ng/well of murine CCL3, CCL4 or […] and blocked with 1% BSA in PBS. Wells were washed and incubated with 10 ng/ml, 100 ng/ml or 1000 ng/ml CCR5-IgG (EC1, EC2, EC3, N) at a concentration overnight. Wells were washed and the presence of CCR5-IgG was detected with goat anti mouse IgG-HRP (Jackson ImmunoResearch lot no. 58734). Results are shown as O.D. reading at 450 nm.

murine MIP-1α (CCL3) = biological target: T2, murine MIP-1α (CCL3) (murine, UniProt P10855 24-92); experiment: as above
T2 construct: Bought recombinant chemokine; also called mCCL3; murine CCL3
T2 sequence (looked up): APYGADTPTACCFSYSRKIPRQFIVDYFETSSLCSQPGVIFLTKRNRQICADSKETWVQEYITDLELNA
Procedure: as §1

murine RANTES (CCL5) = biological target: T3, murine RANTES (CCL5) (murine, UniProt P30882 24-91); experiment: as above
T3 construct: Bought recombinant chemokine; also called mCCL5; murine CCL5
T3 sequence (P30882 24-91 limits assumed): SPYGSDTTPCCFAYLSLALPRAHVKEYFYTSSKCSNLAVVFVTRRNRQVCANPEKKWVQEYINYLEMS
Procedure: as §1

human MIP-1β (CCL4) = biological target: T4, human MIP-1β (CCL4) (human, UniProt P13236 24-92); experiment: direct ELISA, chemokine coated at 10 ng/well, fusion at 1 µg/well
T4 construct: Bought recombinant chemokine; also called human CCL4
T4 sequence (looked up): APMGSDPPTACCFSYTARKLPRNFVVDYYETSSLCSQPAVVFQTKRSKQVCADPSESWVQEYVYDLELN
Procedure: (§2) The binding specificity of the murine CCR5-IgG soluble receptor to various commercially available human recombinant chemokines (R&D Systems, Minneapolis, N. Mex.) MIP-1α (CCL3), MIP-1β (CCL4) and RANTES as well as the murine recombinant chemokines (R&D Systems, Minneapolis, N. Mex.) MIP-1α (CCL3) and ITAC was determined by direct ELISA as follows: 96-well ELISA plates (Nunc, Roskilde, Denmark) were coated with 10 ng/well of human CCL3, CCL4, CCL5, as well as murine CCL3 or ITAC, and blocked with 1% BSA in PBS. Wells were washed and incubated with 1 μg/well CCR5(EC2)-IgG overnight. Wells were washed and the presence of CCR5(EC2)-IgG was detected with goat anti mouse IgG-HRP antibody (Jackson ImmunoResearch lot no. 58734). Results are shown as O.D. reading at 450 nm.

human RANTES (CCL5) = biological target: T5, human RANTES (CCL5) (human, UniProt P13501 24-91); experiment: as above
T5 construct: Bought recombinant chemokine; also called human CCL5
T5 sequence (looked up): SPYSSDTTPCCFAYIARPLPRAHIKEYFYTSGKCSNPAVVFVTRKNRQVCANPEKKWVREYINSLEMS
Procedure: as §2

binding result (murine MIP-1β (CCL4)): binds
binding result (murine MIP-1α (CCL3)): binds
binding result (murine RANTES (CCL5)): binds
binding result (human MIP-1β (CCL4)): binds
binding result (human RANTES (CCL5)): binds
B1: mCCR5(EC2)-IgG (Fc fusion)
chain: DAAQPARRARRTKLRSQKEGFHYTCSPHFPHTQYHFWKSFQTLKLEVPRDCGCKPCICTVPEVSSVFIFPPKPKDVLTITLTPKVTCVVVDISKDDPEVQFSWFVDDVEVHTAQTQPREEQFNSTFRSVSELPIMHQDCLNGKEFKCRVNSAAFPAPIEKTISKTKGRPKAPQVYTIPPPKEQMAKDKVSLTCMITDFFPEDITVEWQWNGQPAENYKNTQPIMDTDGSYFVYSKLNVQKSNWEAGNTFTCSVLHEGLHNHHTEKSLSHSPGKGPEQKLISEEDLNSAVDHHHHHH
notes: It may include the vector's Ig-kappa leader and tags; also called murine CCR5(EC2)-IgG; CCR5-Ig(E2)
